Measurements taken from article PMC4376777 (PLoS Pathogens, 2015).

Molecular target: T1, GST–PPM1A (human, UniProt P35813-1 1-382)
T1 construct: also called GST–PPM1A-WT; purified PPM1A
T1 sequence (looked up): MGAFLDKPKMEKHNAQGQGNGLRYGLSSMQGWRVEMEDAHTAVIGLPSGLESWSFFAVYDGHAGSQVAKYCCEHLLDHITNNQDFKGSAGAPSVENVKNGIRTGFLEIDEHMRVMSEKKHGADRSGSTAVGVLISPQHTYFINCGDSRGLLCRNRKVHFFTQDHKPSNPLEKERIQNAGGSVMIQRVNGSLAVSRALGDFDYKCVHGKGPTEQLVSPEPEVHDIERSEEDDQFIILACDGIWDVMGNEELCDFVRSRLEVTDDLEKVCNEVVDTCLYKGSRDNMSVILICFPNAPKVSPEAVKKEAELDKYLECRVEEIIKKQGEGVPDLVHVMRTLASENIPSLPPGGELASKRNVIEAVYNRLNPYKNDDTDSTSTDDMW
Test: pull-down; 1 μg of each purified protein incubated with glutathione–Sepharose beads at 4°C overnight; washed with 50 mM Tris-HCl pH 7.5, 200 mM NaCl, 10% glycerol, 0.1% Triton X-100; immunoblot
Conditions: both partners purified

B1: His–STING (amino acids 153–379) (domain or fragment, human, UniProt Q86WV6 153-379, looked up)
chain: FNVAHGLAWSYYIGYLRLILPELQARIRTYNQHYNNLLRGAVSQRLYILLPLDCGVPDNLSMADPNIRFLDKLPQQTGDHAGIKDRVYSNSIYELLENGQRAGTCVLEYATPLQTLFAMSQYSQAGFSREDRLEQAKLFCRTLEDILADAPESQNNCRLIAYQEPADDSSFSLSQEVLRHLRQEEKEEVTVGSLKTSAVPSTSTMSQEPELLISGMEKPLPLRTDFS
binding result: binds
